{"source": "the nanobody polyreactivity screen of Harvey et al. (2022)"}
{"assay": "yeast display, Sf9 membrane polyspecificity reagent, FACS + sequencing; frameworks hold sequencing errors", "how_it_was_run": "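Using colony PCR, genes from sorted yeast display clones were amplified, then sequenced on MiSeq at 2 × 250 and filtered by CDR length. The clones had been stained with 10% biotinylated, detergent-solubilized Sf9 membrane reagent for 1 hour at 4 °C and sorted by FACS into low and high (top ~1%) gates on anti-HA and streptavidin fluorescence. Polyreactivity labels come from the gate of origin.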"}
{"sequence": "QVQLVESGGGLLQAGGSLRLSCAASGRTFHTYAMGWYRHAPGKERELVAAISRSGGSTYYADSVKGRFTISRDNAMNPVYLQMNSLKPEDTAVYYCADTAGYWGQGTQVTVSS", "polyreactivity (PSR sort gate)": "high polyreactivity"}
{"sequence": "QVQLVESGGGLVQAGGSLRLSCAASGSICGRYAMGWYRQAPGKDRELVAAIRWRSGSTYYADSVKGRFTISRDNAKNSVYLHMNSLKPEDTAVYYCAVQRSYVGPRQYNYWGQGTQVTVSS", "polyreactivity (PSR sort gate)": "high polyreactivity"}
{"sequence": "QVQLVESGGGLFQAGGSLRLSCAASGSTFVYNDMGWYRKATGKERELVAYISTSGGSTYYADSVKGRFTISRDNAKNTVYLQMNSLKPEDTAVYYCNAKRSGPWFLHVPVYYWGQGTQVTVSS", "polyreactivity (PSR sort gate)": "low polyreactivity"}
{"sequence": "QVQLVESGGGLVQAGGSLRLSCAASGSIFRKNAMGWYRQAPGKERELVAAITYRTGSTYYADSVKGRFTISRDNAKNTVYLQMNSLKPEDTAVYYCAAQTWGSGYGHIGRRRHDYWGQGTQVTVSS", "polyreactivity (PSR sort gate)": "high polyreactivity"}
{"sequence": "QVQLVESGGGLVQAGGSLRLSCAASGFTFRYYAMGWYRQAPGKERELVAAITSGDSTYYADSVKGRFTISRDKAKNTVYLQMNSLKPEDTAVYYCAAYSWLYEGYEYWGQGTQVTVSS", "polyreactivity (PSR sort gate)": "high polyreactivity"}
{"sequence": "LVQLVESGGGLVQAGGSLRLSCAASGNIFVSYAMGWYRQAPGKERELVAAISKSGGSTYYADSVKGRFTISRDNAKNTVYLQMNSLKPEDTAVYDCAARWYNRVKYQKFNYWGQGTQVTVSS", "polyreactivity (PSR sort gate)": "high polyreactivity"}
{"sequence": "QVQLVESGGGLVQAGGSLRLSCAASGSIFGTYAIGWDRQAPGKERELVAAISRGGRTYYADSVKGRFTISRDNAKNTVYLQMNSLKPEDTAVYYCAARTVGLRGYYYWGQGTQVTVSS", "polyreactivity (PSR sort gate)": "high polyreactivity"}
{"sequence": "QVQLVESGGGLVQAGGSLRISCAASGRIYPVYVMGWYRQAPGKERELVAAINYNGGSTTYADSVKGRFTISRDNAKNTVYLQMNSLKPADTAVYYCAAGTPAYVETEYEYWGQGTQVTVSS", "polyreactivity (PSR sort gate)": "low polyreactivity"}
{"sequence": "QVQLVESGGGLVQAGGSLRLSCAASGIIFTWYAMGWYRQAPGKERELVAAISGSGDITYYADSVKGRFTSSRDNAKNTVYLQMNSLKPEDTAVYYCAADPWTYWEDYDYWGQGTQVTVSS", "polyreactivity (PSR sort gate)": "low polyreactivity"}
{"sequence": "QVQLVESGGGLVQAGGSLRLSCAASGFIFAPNAMGWYRQAPGKERELVAAISHSGASTFYADSVKGRFTISRDNAKNTVYLQMNILKPEDTAVYYCAADLYIYYVWIRDYWGHGTQVTVSS", "polyreactivity (PSR sort gate)": "low polyreactivity"}
{"sequence": "QVQLVESGGGLVQAGGSLRLSSAATGSIFLSNMGWYRQAPGKERELVAAIYRNGGSTYYADSVKGRFTISRDNAKNTVYLQMNSLKPEDTAVYYCAVQRYWGQGTQVTVSS", "polyreactivity (PSR sort gate)": "high polyreactivity"}
{"sequence": "QVQLVESGGGLVQAGGSLRLSCAASGSIFVGNAMGWYRQAPGKERELVAGISKSGSRTYYADSVKGRFTISRDNAKNTVYVQMNSLKPEDTSVYYCAAGKVAYYTLDYYWGQGTQVTVSS", "polyreactivity (PSR sort gate)": "high polyreactivity"}
{"sequence": "QVQLVESGGGLVQAGGSLRLSCAASGFIFNTMGWYRQAPGKERELVATMSWSDGSTYYADSVKGRFTISRDNAKNTVYLQMNSLKPEDTAVYYCAATTDALVGRPRYDYWGQGTQVTVSS", "polyreactivity (PSR sort gate)": "low polyreactivity"}
{"sequence": "QVQLVESGGGLVQAGGSLRLSCAASGSTFVIYAMGWYRQAPGKERELVAAITISGGRTYYADSVKGRFTISRDNAKNTVYLQMNSLKPEDTAVYYCAATVVSTYPYGYGSTFVRDDYWGQGTQVTVSS", "polyreactivity (PSR sort gate)": "low polyreactivity"}
{"sequence": "QVQLVESGGGLVQAGGSLRLSCAASGSIFRPNDMGWYRQAPGKERELVAAISTGGSTSYADSVKGRFTISRDNAKNTVYLQMNSLKPEDTAVYYCAAVYYLTDWYGVWYSFDYWGQGTQVTVSS", "polyreactivity (PSR sort gate)": "low polyreactivity"}
{"sequence": "QVQLVESGGGLVQAGGSLRLSCAASGSTFYAYAMGWYRQAPGKERELVAAITSRGGSTYYADSVKGRFTISRDNAKYTVYLELISLKPEDTAVYYCDARTCWWSRYYGSWGQGTQVTVSS", "polyreactivity (PSR sort gate)": "high polyreactivity"}
{"sequence": "QFQLQESCCGLVQAGGSLRLSCAASGTISYAPQMGWYRQAPGKERELVAGITIGGTTYYADSVKGRFTISRDNAKNTVYLQMNSLSPGDTAVYYCAAHSEQYTPFYYWGQGTQVTVSS", "polyreactivity (PSR sort gate)": "low polyreactivity"}
{"sequence": "QVQRVETAGRLVQARGSLRLSCAPSGIIFKRNAIGWYRQAPGKEREFVAAISSSGDTTYYADSVKGRFTISRDNAKNTVYLQMNSLKPEDTAVYYCAKPIRTSRARGMYYWGQGTEVTVSS", "polyreactivity (PSR sort gate)": "high polyreactivity"}
{"sequence": "QVQLVESGGGLDQAGGSLRLSCAASGSTFGYYAMGWYREAPGKERELVASITSDGSTNYADSVKGRFTISRDNAKNTVYLQMNSLKPEDTAVYYCAAYVWRYWHEYDYWGQGTLVTVSS", "polyreactivity (PSR sort gate)": "low polyreactivity"}
{"sequence": "QVQLVESGGGLVQAGGSLRLSCAASGSTFYRNAMGWYRQAPGKEREFVAAITTDDSTYYADSVKGRFTISRDNAKNTVYVQMNSLKPEDTAVYYCAAGLEGKATWAAVGGYDYWGQGTQVTVSS", "polyreactivity (PSR sort gate)": "low polyreactivity"}
{"sequence": "QVQLVESGGGLVQAGGSLRLSCAASGRTFGWNARGWYRQAPGKEKELVAAISWSGTNTYYADSVKGRFTISRDNAKNTVYLQMNSLKPEDTAVYYCAARDWTGSWNGYWSCEYNYWGQGTQVTGSS", "polyreactivity (PSR sort gate)": "low polyreactivity"}
{"sequence": "QVQLVESGGGLVQAGGSLRLSCAASGNIFAWSAMGWYRQAPGKERELVARITVGSTYYADSVKGRFTISRDNAKNTVYLQMNSLKPEDTAVYYCNKDSGEDDRWPYDYWGQGTQVTVSS", "polyreactivity (PSR sort gate)": "low polyreactivity"}
{"sequence": "QVQLLESGGGLVQAGGSLRLTCAASGSTFSPNAMGWYRQAPGKERELVAAITYRGANTYYADSVKGRFTISRDNAKITVYLQMNSLKPEDTAVYYCDAEYAYHHVGFGYWGQGTQVTVSS", "polyreactivity (PSR sort gate)": "low polyreactivity"}
{"sequence": "QVQLVESGGGLVQAGGSLRLSCAASGSTFWYNDMGWYRQAPGKESELVAAITWTGDGTYYADTVKGRFTISRDNAKNTVYLQMNSLKPEDTAVYYCAAAYFQWSTSIVGLDAWYDYWGQGTQVTVSS", "polyreactivity (PSR sort gate)": "low polyreactivity"}
{"sequence": "QVQRLESAGGLVQAGGSLRLSCAASGFIFSYYAMGWYRQAPGKERELVAAIDGSGGSTYYADSVKGRFTISRDNAKNTVYLQKNSLKPEDTAVYYCNTLIYIQGLGYDYGGQGTQVTVSS", "polyreactivity (PSR sort gate)": "high polyreactivity"}
{"sequence": "QVHLQESGGGLVKAGGSLRLSCAASGTISPLPAMCWYRQAPGKEREFVAGIDTGAITNYADSVKGRFTISRDNAKNTVYLQMNSLKPEDTAVYYCAFFPAAYDYYERYYTYWGQGTQVTVSC", "polyreactivity (PSR sort gate)": "low polyreactivity"}
{"sequence": "QVQLVESGGGLVQAGGSLRLSCAASGITFSLYAMGWYRQAPGKERELVAAITRSGGSTYYADSVKGRFTISRDNAKNTVYLQMNSLKPEDTAVYYCAALRPGVRRYYYWGHGTQVTVSS", "polyreactivity (PSR sort gate)": "high polyreactivity"}
{"sequence": "QVQLVESGGGLVQAGGSLRLSCAASGFIFEWYTMGWYRQAPGKERELVARISSDGSTTYADSVKGRFTISRDNAKNTVYLQMNSLKPEDTAVYYCAADVTYPGLKYIFDYWGQGTQVTVSS", "polyreactivity (PSR sort gate)": "low polyreactivity"}
{"sequence": "QVQLVESGGGLVQAGCSLRLSCAASGSTFRKYAMGWYSQAPGKQREFVAAITSSGGSTYYSDSVKGRFTISRDKAKNTVYLLMNSLIPEDTAVYYCASRGVYVSTAYNYWGQGTQVTESS", "polyreactivity (PSR sort gate)": "high polyreactivity"}
{"sequence": "QVQLVESGGGLVQAGGSLRLSCAASGFIFYSSDMGWYRQSPGKERELVAAIDSRGVNTYYADSVKGRFTISRDNAKNTVYLQMNSLKPEDTAVYYCNVDAINWWDWEDFDYWGQGTQVTVSS", "polyreactivity (PSR sort gate)": "low polyreactivity"}
{"sequence": "QVQLVESGGGLVQAGGSLRLSCAASGRIFATNAMGLYRQAPGKERELVATITRSAGRTYYADSVKGRFTISRDNAKNTVYLQMNSLKPEDTAVYYCAASYWDTEPGYREYDYWGQGTQVTVSS", "polyreactivity (PSR sort gate)": "low polyreactivity"}
{"sequence": "QVQLVESGGGLVQAGGSLRLSCAASGSTFSVYAMGWYRQAPGKERELVAAITWSGGSTYYADSVKGRFTISRDNAKNTVYLQMNSLKPEDTAVYYCAARYGRIHWKANWPEYGYWGQGTQVTVSS", "polyreactivity (PSR sort gate)": "low polyreactivity"}
{"sequence": "QVQLVESGGGLVQAGGSLRLSCAASGSTFQQYGMGWYRQAPGKERELVAAITFSDGNTYYADSVKGRFTISRDNAKNTVYLQMNSLKREDTAVYYCNAGYSYGVSYAEGGYWGQGTQVTVSS", "polyreactivity (PSR sort gate)": "low polyreactivity"}
{"sequence": "QVQLVESVGGLVQAGGSLRLSCAASGSTFDDNAMGWYRQAPGKERELVASITYRGGSTYYADSVKGRFTISRDNAKNTVYLQMNSLKPEDTAVYYCAKGHYFKYDYWGQGTQVTVSS", "polyreactivity (PSR sort gate)": "low polyreactivity"}
{"sequence": "QVQLVESGAGLVQAGGSLRLSCAASGLTFDYYAMGWYRQAPGKEREFVAAITRRGGGTYYADSVKGRFTISRDNAKNTVYLQMNSLKPEDTAVYYCAAYGCGNRWYSRFDYWGQGTQVTVSS", "polyreactivity (PSR sort gate)": "high polyreactivity"}
{"sequence": "QVQLVESGGGLVQAGGSLRLSCAASGRTFKLNAMGWYRQAPGKERELVAAISRNGGSTYYADSVKGRFTISRDNAKNTVYLQMNSLKPEDTAVYYCAAVRHGVSLAGYYWGQGTQVTVSS", "polyreactivity (PSR sort gate)": "high polyreactivity"}
{"sequence": "QDQLVESGGGLVQAGGSLRLSCAASGSIIYAYAMGWYRQAPGKERELVAAISWTGGSTYYADSVKGRFTISRDNAKNTVYLQMNCLKPEDTAVYYCAATYYQVASFYVTRYDYWGQGTQVTVSS", "polyreactivity (PSR sort gate)": "low polyreactivity"}
{"sequence": "QVQLVESGGGLVQAGGSLRLSCAASGRIFYKSAMGWSRQAPGKEREWVAAITTSGGSTYYADSVKGRFTISRDNAKNTVYLQMNSLKPEDTAVYYCAARSAYGTQRLYYWGQGTQVTVSS", "polyreactivity (PSR sort gate)": "high polyreactivity"}
{"sequence": "QVQLLESGGGLVQAGGSLRLSCAASGYTFRFNAMGWNRQAPGKETEFVAAIDFGGAGTYYADSVKGRFTISRDNAKNTVYLQMNSLKPEDTAVYYCNARDGVTTEFDYWGQVTQVTVSS", "polyreactivity (PSR sort gate)": "low polyreactivity"}
{"sequence": "QVQLVESGGGLVQAGGSLRLSCAASGFTFLRYAMGWYRQAPGKERELVAAITGSGGSTYYADSVKGRFTISRDNAQNTVYLQMNSLKPEDTAVYYCSIVSKFTGDYGYWGQGTQVTVSS", "polyreactivity (PSR sort gate)": "high polyreactivity"}
{"sequence": "QVQLLESGGGLVQAGRSLRLSCAASGSIFWYAMGWYRQAPGKERELVATITSGASTTYADSVKGRFTISRDNAKNTVYLQMNSLNPEDTAVYYCAKRNYLSYRYDYWGQGTQVNVSS", "polyreactivity (PSR sort gate)": "low polyreactivity"}
{"sequence": "QVQLVESGGGLVQEGGSVRFSCAASGSISKPNARGWYRQAAGKERELVASITRGGIPNYADSVKGRVTISRDNAKNTVYLQMNSLKPEDTAVYDCAAFYAYSKYSYNIRFYYWGQGTQVTVAS", "polyreactivity (PSR sort gate)": "high polyreactivity"}
{"sequence": "QLQLVESRPGLVPAGGSLRLSCAPSGSTFSYYAMGRYRQAPGKERELDAAISKSGGSTYYADSVKGRFTISRDNAINTVFLQMNSLKPYDTAFYYCSTRSRDPYSVSYRLDYWGQGTQVTVSS", "polyreactivity (PSR sort gate)": "low polyreactivity"}
